These results are taken from article PMC7809799, “A microtubule‐LUZP1 association around tight junction promotes epithelial cell apical constriction” (The EMBO Journal, 2020).

One assay addresses Flag‐LUZP1 (mouse) (UniProt Q8R4U7). Kind of assay: pull-down; in vitro direct binding assay: Flag‐LUZP1 on anti‐Flag M2 affinity gel beads, GST‐MLC 0–8.0 μM in HBS, RT 60 min; washed in 300 mM NaCl, 50 mM Tris–HCl pH 7.5, 1 mM EDTA, 1 mM DTT; immunoblot densitometry, Michaelis–Menten fit. In general terms: A western blot detects proteins with antibodies after separation by electrophoresis.

A further assay addresses HA‐PP1c β/δ (UniProt P62141 1-327). Put plainly: cell-based or functional assay.
The target of assay [1] is Taxol‐stabilized microtubules (tubulin, Cytoskeleton Inc. #T240) (UniProt P02550). Kind of assay: co-sedimentation; MT co‐sedimentation: Flag‐LUZP1 (10 μl of 7.7 nM in 20 μl) with 0–6 μM polymerized tubulin, GTP and Taxol, PME buffer/HBS, RT 60 min; 434,513 g, 25°C, 20 min; immunoblot densitometry, Michaelis–Menten fit.

For the molecule “GST‐tagged di‐dephosphomimetic myosin light chain (T18A, S19A) (natural protein)”, in the assay with Flag‐LUZP1 (mouse), the Kd – broadly, a measure of binding affinity in units of concentration – came to 4880 nM.
Regarding “GST‐tagged di‐phosphomimetic myosin light chain (T18D, S19D) (natural protein)”, the Kd in the assay with Flag‐LUZP1 (mouse) was 850 nM.
On the same count and under the same terms, as for “GST‐tagged wild‐type myosin light chain (from UniProt Q3THE2 1-172) (natural protein)”, the figure is 4040 nM.

B1: GFP‐LUZP1 (natural protein, mouse, UniProt Q8R4U7 1-1068, looked up)
chain: MAELTNYKDAASNRHLRFKLQSLSRRLDELEEATKNLQRAEDELLDLQDKVIQAEGSDSSTLAEIEVLRQRVLKIEGKDEEIKRAEDLCHTMKEKLEEEENLTRELKSEIERLQKRMVDLEKLEEALSRSKNECSQLCLSLNEERNLTKKISSELEMLRVKVKELESSEDRLDKTEQSLVSELEKLKSLTLSFVNERKYLNEKEKENEKIIKELTQKLEQNKKMNRDHMRNASTFLERNDLRIEDGISSTLSSKESKRKGSLDYLKQVENETRDKSENEKNRNQEDNKVKDLNQEIEKLKTQIKHFESLEEELKKMRAKNNDLQDNYLTELNRNRSLASQLEEIKLQVRKQKELGNGDIEGEDAFLLGRGRHERTKLKGHGSEASVSKHTSRELSPQHKRERLRNREFALSNEHYSLSSKQASSPVFTNKRAAKASNMGMGTDSGTQETKRTEDRFAPGSSHSEGKRGREQPSVLSRYPPAAQEHTKVWKGAPKPGTESGLKGKVEKTTRTFSDSTHVSVPNDIVGKGDKTSDLSSEAHCGKRGQVPGHASQGTQAVESSCSKAIGALSSSQKASSEGLSKGKKTANGLAADANFSNSKAPILSKYPYSSRSQENILQGFSLPNKEGVDQPVAVVMEDSSQHEALRCRVIKSSGREKPDSDDDLDIESFVTAKLVNTTITPEPEPKPQPNSREKVKSRGGTRTALFENDKNAAIENDSVKPTRPSSNAIEFPDANCAGVKNQRPFSPREALRSRAIIKPVIIDKDVKKIMGGSGTEVVLEKQKSTSKSVTSKVTSSITIYPSDSSGPRAVPSEAPRERHTSTSNIQVGPPELTAISNHVSSPLELSIHKHDITLQLTEAERVGDGSPKNRAEMVVSRSSILIKPSESVEKNSHVPPAETIRWKSHSASSDSRHITVRNAWKSKRDLKCSEDPPTGIGRNMEATNAYTQRPCTDFLELEQPRSQPSEQGARRVGNSGDAPELSPRRTQSSLTASEVLTRRDRMGGAITAASCNHSSSMEEGEDSTFVTSRRIHNPLEHSELPGKQGLPEPEPVWTEERLHPAKPYAEED
Consider B1, for which, in the assay with HA‐PP1c β/δ, the “in vitro MLC phosphorylation assay with 1 μg MTs added (25 ng GST‐MLC, 4 ng GST‐ROCK1 catalytic domain, 1 μg GST‐PP1c β/δ, 0–5 μg GST‐LUZP1): ppMLC/MLC ratio relative to the control” value was 2.87 ratio relative to the control and the “in vitro Merlin phosphorylation assay with 1 μg MTs added (100 ng GST‐Merlin, 2 pg PAK1, 1 μg GST‐PP1c β/δ, 0–5 μg GST‐LUZP1): pMerlin/Merlin ratio relative to the control” value is 8.32 ratio relative to the control. Also, the Kd in assay [1] was 780 nM.
